This is an account of results in article doi:10.1101/746180 (bioRxiv, 2020).

A word on the Kd: it is a measure of binding affinity in units of concentration. A low value points to higher affinity. As usually defined, the stoichiometry N is a count of units in the complex or per binding partner.

Ends that are not written are not given here.

In assay [1] the target is MBTD1(140-562)-(GSA)6-EPC1(644-672) fusion protein (UniProt Q05BQ5 140-562; Q9H2F5 644-672). Put plainly: ITC. Background: Isothermal titration calorimetry measures the heat released or taken up as one component is titrated into another.
Another assay addresses His-MBTD1 (UniProt Q05BQ5 1-628). The assay can be described thus: ITC.

Chain of His-MBTD1 (Q05BQ5 whole entry): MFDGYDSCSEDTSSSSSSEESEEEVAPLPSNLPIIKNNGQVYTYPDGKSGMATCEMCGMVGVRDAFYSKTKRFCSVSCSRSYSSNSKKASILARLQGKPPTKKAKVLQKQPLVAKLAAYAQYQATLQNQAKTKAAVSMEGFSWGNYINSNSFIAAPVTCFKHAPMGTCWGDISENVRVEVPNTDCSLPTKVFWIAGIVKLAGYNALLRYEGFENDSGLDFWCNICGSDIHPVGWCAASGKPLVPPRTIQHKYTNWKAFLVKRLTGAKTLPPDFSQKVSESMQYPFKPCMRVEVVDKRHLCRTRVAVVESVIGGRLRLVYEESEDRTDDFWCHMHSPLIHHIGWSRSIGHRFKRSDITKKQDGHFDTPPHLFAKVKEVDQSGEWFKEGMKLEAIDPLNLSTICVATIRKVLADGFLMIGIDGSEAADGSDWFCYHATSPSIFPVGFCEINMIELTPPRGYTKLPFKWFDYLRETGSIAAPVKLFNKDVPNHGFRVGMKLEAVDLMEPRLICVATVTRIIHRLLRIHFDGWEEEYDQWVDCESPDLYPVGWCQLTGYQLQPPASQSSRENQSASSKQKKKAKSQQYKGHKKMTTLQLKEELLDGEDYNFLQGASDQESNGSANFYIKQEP

For the molecule AKRHRK(Me)VLRDN [H4K20me1 peptide], the binding result in assay [1] is on record as “binds”. For the molecule QGFVSKTLDSASAQFAASALVTSEQLMGF (domain or fragment, UniProt Q9H2F5 644-672, looked up) [GST-EPC1(644-672)], in the assay with His-MBTD1, the Kd was approximately 67 nM and the “stoichiometry N” value was approximately 1.3.
